Patent publication US20250313644A1 (FUTUREGEN BIOPHARMACEUTICAL BEIJING, published 2025)
Positions count from the first letter of the chain named.

Assays:
LIGHT [1] = target: T1, LIGHT (UniProt O43557 74-240, limits assumed); test: ELISA, coated LIGHT
Method: (§1) In this experiment, ELISA was used to assess the binding ability of monoclonal antibodies to TL1A homologous molecules. Representative members of the TNF ligand superfamily, TNFα, LT-α, LIGHT and FASL, were selected for binding testing. 1 μg/mL of TNFα, LT-α, LIGHT or FASL was coated in a microplate with a carbonate buffer solution at pH=9.6, 100 μL per well, and the microplate was incubated at 4° C. overnight. The microplate was then washed 5 times with PBST, blocked with 300 μL/well of PBS containing 1% BSA, and was incubated at room temperature for 1 hour. After washing 5 times with PBST, about 100 μL each of the M701 monoclonal antibodies and the control antibodies were added to each well, and were incubated at room temperature for 1 hour. After washing 5 times with PBST, 100 μL of HRP-anti-human Fc (Sino Biological) was added to each well, and was incubated at room temperature for 1 hour. After washing 5 times with PBST, 100 μL of colorimetric substrate TMB was added to each well, and color was developed at room temperature for 10 minutes, followed by addition of 1M sulfuric acid to terminate the reaction. OD450 nm was recorded on a microplate reader.

[2] = target: T2, HuTL1A mutant R103A (mutant number 4057) (human, UniProt O95150 57-251, limits assumed); test: ELISA on antigen mutant
T2 construct: whole entry named
T2 chain: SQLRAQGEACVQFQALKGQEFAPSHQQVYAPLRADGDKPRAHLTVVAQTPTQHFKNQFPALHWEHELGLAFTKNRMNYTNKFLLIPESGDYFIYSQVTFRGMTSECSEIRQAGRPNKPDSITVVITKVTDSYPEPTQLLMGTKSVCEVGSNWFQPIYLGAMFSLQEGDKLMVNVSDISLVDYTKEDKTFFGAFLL

[3] = target: T3, HuTL1A mutant G124R (mutant number 4059) (human, UniProt O95150 57-251, limits assumed); test: ELISA on antigen mutant
T3 construct: whole entry named
T3 chain: T2 chain with A47R, G68R

FASL [4] = target: T4, FASL (UniProt P48023 134-281, limits assumed); test: ELISA, coated FASL, Ab 25 nM
T4 sequence (looked up): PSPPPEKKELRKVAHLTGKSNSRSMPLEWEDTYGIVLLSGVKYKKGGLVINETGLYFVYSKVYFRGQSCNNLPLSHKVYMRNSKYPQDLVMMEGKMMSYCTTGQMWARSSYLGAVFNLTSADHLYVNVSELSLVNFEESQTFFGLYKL
Method: as §1

FASL [5] = target: T4, FASL; test: ELISA, coated FASL, Ab 100 nM
Method: as §1

human TL1A (HuTL1A) [6] = target: T5, human TL1A (HuTL1A) (human, UniProt O95150 57-251, limits assumed, biotin-labelled in some assays (site not stated)); test: cell-based or functional assay
T5 sequence: T2 chain with A47R

TNFα = TNFα (UniProt P01375 77-233); test: ELISA, coated TNF-α, Ab 100 nM
TNFα, sequence (P01375 77-233 limits assumed): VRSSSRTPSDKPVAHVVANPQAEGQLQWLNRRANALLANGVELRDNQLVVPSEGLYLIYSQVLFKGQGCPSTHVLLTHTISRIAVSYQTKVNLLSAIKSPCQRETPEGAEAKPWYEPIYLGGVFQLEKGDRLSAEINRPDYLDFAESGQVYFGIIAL
Method: as §1

LIGHT [7] = target: T1, LIGHT; test: ELISA, coated LIGHT, Ab 6.25 nM
Method: as §1

LT-α [8] = target: T6, LT-α (UniProt P01374 35-205); test: ELISA, coated LT-α, Ab 1.563 nM
T6 sequence (looked up): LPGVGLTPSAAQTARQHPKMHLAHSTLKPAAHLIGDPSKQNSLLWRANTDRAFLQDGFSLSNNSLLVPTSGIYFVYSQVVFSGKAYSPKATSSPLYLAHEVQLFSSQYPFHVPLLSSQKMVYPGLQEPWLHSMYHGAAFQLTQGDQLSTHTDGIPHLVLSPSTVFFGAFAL
Method: as §1

LIGHT [9] = target: T1, LIGHT; test: ELISA, coated LIGHT, Ab 1.563 nM
Method: as §1

FASL [10] = target: T4, FASL; test: ELISA, coated FASL, Ab 0.000 nM (blank)
Method: as §1

LT-α [11] = target: T6, LT-α; test: ELISA, coated LT-α, Ab 0.000 nM (blank)
Method: as §1

human TL1A (HuTL1A) [12] = target: T5, human TL1A (HuTL1A); test: DLS, antigen and antibody mixed in equal moles
Method: 60 μM antigen and antibody was mixed in equal moles, incubated at room temperature for 30 minutes, and then the molecular size was detected using UNCLE or SEC.

human TL1A (HuTL1A) [13] = target: T5, human TL1A (HuTL1A); test: ELISA: biotin-HuTL1A on streptavidin plate, antibody diluted at pH 5.8, HRP-anti-human Fc, OD450
Method: Corresponding antibodies were added to specific wells, and the antibodies were diluted with sodium dihydrogen phosphate-citrate buffer at pH 7.4, pH 6.0, pH 5.8, or pH 5.6. Binding assay was carried out at room temperature for 30 minutes. After the incubation, the excess antibodies were removed and the wells were washed by PBST. HRP-anti-Human Fc (Sino Biological) was then added into each well and incubated for 30 minutes to detect the bound antibody. The substrate TMB was finally added to develop color for 5-10 minutes. The color development reaction was terminated with 1M sulfuric acid. OD450 nm was recorded on a microplate reader, and the data were processed and fitted by 4 parameter logistic regression.

T1 sequence (O43557 74-240 limits assumed): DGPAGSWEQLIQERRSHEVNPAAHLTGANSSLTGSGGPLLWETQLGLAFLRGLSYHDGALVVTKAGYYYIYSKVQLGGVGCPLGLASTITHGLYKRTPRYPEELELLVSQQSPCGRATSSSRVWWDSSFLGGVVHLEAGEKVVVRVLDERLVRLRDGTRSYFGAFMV

B1: M701-3966 (antibody, human IgG1, kappa, L234A L235A, V domains shown)
VH: ELQLQESGPGLVKPSETLSLTCAVSGVSFSDYHWAWIRQPPGKGLEWIGDINHRGHTNYNPSLKSRVTVSIDTSKNQFSLKLSSVTAADTAVYFCARDFPNFIFDYWGQGTLVTVSS
VL: DIQLTQSPGTLSLSPGERATLSCRASQSVSSYLAWYQQKPGQAPRLLIYGASKRATGIPDRFSGSGSGTDFTLTISRLEPEDFAVYYCQQYGDSPLTFGQGTKVEIKR
notes: Fc-engineered IgG1
binding result (LIGHT [1]): no binding (tested: 100 nM)
binding result [2]: no binding
binding result [3]: no binding
OD450 nm (FASL [4]): 0.0662
OD450 nm (FASL [5]): 0.0914
IC50 (read off the curve); IFN-γ of human T cells with IL-12, IL-18 and exogenous human TL1A (human TL1A (HuTL1A) [6]): ~0.3 nM
OD450 nm (TNFα): 0.0787
OD450 nm (LIGHT [7]): 0.0568
OD450 nm (LT-α [8]): 0.0651
OD450 nm (LIGHT [9]): 0.0573
OD450 nm (FASL [10]): 0.0692
OD450 nm (LT-α [11]): 0.0704
Ave Z-dia (nm) of the antigen-antibody complex (human TL1A (HuTL1A) [12]): 18.6 nm

B2: M701-4007 (antibody, human IgG1, kappa, L234A L235A, V domains shown)
VH: B1 VH with Y106F
VL: B1 VL with S31T
notes: Fc-engineered IgG1
binding result (LIGHT [1]): no binding (tested: 100 nM)
binding result [2]: no binding
binding result [3]: no binding
OD450 nm (FASL [4]): 0.0634
OD450 nm (FASL [5]): 0.089
IC50 (read off the curve); IFN-γ of human T cells with IL-12, IL-18 and exogenous human TL1A (human TL1A (HuTL1A) [6]): ~0.2 nM
OD450 nm (TNFα): 0.079
OD450 nm (LIGHT [7]): 0.0542
OD450 nm (LT-α [8]): 0.0625
OD450 nm (LIGHT [9]): 0.0568
OD450 nm (FASL [10]): 0.0648
OD450 nm (LT-α [11]): 0.0662
Ave Z-dia (nm) of the antigen-antibody complex (human TL1A (HuTL1A) [12]): 18.7 nm
EC50 (read off the curve) (human TL1A (HuTL1A) [13]): ~0.7 nM
